Results on one molecule are retold here after PMC9712993, “A noncanonical RNA-binding domain of the fragile X protein, FMRP, elicits translational repression independent of mRNA G-quadruplexes”.

For this data set, the target named is RGG+CTD (Homo sapiens, UniProt Q06787 527-632). Kind of data set: EMSA; 10 mM Tris-HCl, 100 mM KCl, 5 mM Mg(OAc)2, pH 7.4, BSA, on ice 1 h; mRNA EMSA 0.4 pmol RNA + 20 pmol protein in 18 ul; oligo EMSA 0.2 (G17: 0.4) pmol RNA + 22 pmol protein in 7 ul; FP 5.5 pmol RNA + 300 pmol protein in 100 ul; EMSA gels 4% PAGE 0.5x TBM (2.5 mM MgCl2), RT. The note with it: protein: recombinant; tags: N-MBP, C-His6; label: 5' FAM; single strand.

For the molecule UUUUUUUUUUUUUUUUUU (ssRNA) [(U)18], the binding result was “binds”.
